The labels stand for the following.
B1: Twister Ribozyme (parent)
chain: AACACUGCCAAUGCCGGUCCCAAGCCCGGAUAAAAGUGGAGGGGGCGG

The variants in the data set derive from B1. Kind of data set: self-cleavage, relative activity (ratio to wild type); higher = more cleavage; co-transcriptional.
For AACACUGCCAAUGCCGGUCCCAAGCCCGGAUAAAAGUGGAGGGCGAGG, the self-cleavage was 0.28.
For the variant AACACUGCGAAUGCCGGUCCCAAGCCCGGAUAAAAGUGGAGGGGGCGC, the self-cleavage amounted to 0.511.
Regarding AACACUGCCAAUGCCGAUCCCAAGCCCGGAUAAGAGUGGAGGGGGCGG, the self-cleavage is 0.211.
In the case of AACACUGCUAAUGCCGGUCCCAAGCCCGGAUAAAAGUGGAGCGGGCGG, the self-cleavage was found to be 0.193.
The value for AGCACUGCCAAUGCCGGUCCCAAGCCCGGAUAAAAGUGAAGGGGGCGG was 0.143; that for AACAGUGCCAAUGCCGGUCCCAAUCCCGGAUAAAAGUGGAGGGGGCGG was 0.112; that for AACACUACCAAUGCCGGUCCCAAGCCCGGAGAAAAGUGGAGGGGGCGG was 0.647.
For AACACUGCCAAUGCCGGUCCCAAGCCUGUAUAAAAGUGGAGGGGGCGG, the self-cleavage worked out at 0.441.
Next, AACACUCCCUAUGCCGGUCCCAAGCCCGGAUAAAAGUGGAGGGGGCGG: 0.0545.
As for AACACUGCCACUGCCGGUCCCAAGCCCCGAUAAAAGUGGAGGGGGCGG, the self-cleavage was 0.431.
AACACUGCCAAGGCCGGUCCCAAGCCCGGAUAAAAGUGGAGGGGACGG: the self-cleavage worked out at 0.583.
As for AACACUGGCAAUGCCGGUCCCAAGCCCGGAUAAAAGUGGAGCGGGCGG, the self-cleavage came out at 0.221.
Turning to AACACUGCCCAUGCCGGCCCCAAGCCCGGAUAAAAGUGGAGGGGGCGG, the self-cleavage turned out to be 0.787.
AACACUGCCAAUGCCGGUCCCAAGCCCGGAUAAGAGUGGAGGGCGCGG: the self-cleavage is 0.783.
Regarding AACACUGCCAAUGCCGGUCCGAAGCCCGGAUAAAAGUGGAGGGGGGGG, the self-cleavage was 0.113.
Turning to AACAUUGCGAAUGCCGGUCCCAAGCCCGGAUAAAAGUGGAGGGGGCGG, the self-cleavage was 0.342.
As for AACACGGCCAAUGCCGGUCCCAAACCCGGAUAAAAGUGGAGGGGGCGG, the self-cleavage is 0.0855.
Take AACACUGCCAAUGCCGGUCCCAAGCCCGGAUAAAAGUAGAGGGGCCGG: the self-cleavage stood at 0.65.
Take AACACUGCCAAUGCCGGUCCCAAGCACGGAUAAAAGUGGAGGGGGCGU: the self-cleavage is 0.355.
For AACACUGCCAAUGCCGGUCCCAAGCUCGAAUAAAAGUGGAGGGGGCGG, the self-cleavage came to 0.212.
Turning to GACACUUCCAAUGCCGGUCCCAAGCCCGGAUAAAAGUGGAGGGGGCGG, the self-cleavage was found to be 0.137.
On to AACACUGCCAAUGCCGGUACAAAGCCCGGAUAAAAGUGGAGGGGGCGG, for which the self-cleavage is 0.0702.
As to AACACUGCCAAAGCCGGUCCCAAACCCGGAUAAAAGUGGAGGGGGCGG, the self-cleavage came out at 0.103.
Next, AACACUGCGACUGCCGGUCCCAAGCCCGGAUAAAAGUGGAGGGGGCGG: 0.764.
With AACACUGCCAAUGCCGGUCACAAGCCCGGAUAAAAGUGGAGGGCGCGG, the self-cleavage is 0.146.
The value for AACACUGCCAAUGCCGGUCCCAAGCCCGGAUAAAGGGGGAGGGGGCGG was 0.585; that for AACACUGCCAAUGCCAGUCCCAAGCCCGGUUAAAAGUGGAGGGGGCGG was 1.04.
Regarding AACACUGCCAAUGCCGGCCCCAAGCCCGGAUAAAAGUUGAGGGGGCGG, the self-cleavage turned out to be 0.261.
With AACACUGCCAAUGCCGGCCCCAAGCCCGGAUAAAAGUGGAGGGUGCGG, the self-cleavage turned out to be 0.498.
Regarding AACACUGCCAAUGCCGGUCCCAAGCCCGGAUAAAAGUGGAGAGGGAGG, the self-cleavage came to 0.251.
Next, AACACUGCCACUGCCGGUCCCAAGCCCGGAUAAAAGUGGAGGGGGCGC: 1.05.
For AACACUCCCAAUGCCGGUCCCAAACCCGGAUAAAAGUGGAGGGGGCGG, the self-cleavage was 0.0629.
As for AACACCGCGAAUGCCGGUCCCAAGCCCGGAUAAAAGUGGAGGGGGCGG, the self-cleavage amounted to 0.122.
Take AACACUGCCAAUGCCUGUCCCAAGCCCGGAUAAAAGUGGAGGGGGCAG: the self-cleavage came to 0.378.
AACACUGCCAAUGCCAGUCCCAAGCCCGGAUAAAAGUGGGGGGGGCGG: the self-cleavage was 0.17.
With AACACUGCCAAUGCCGGUCCCAAGCCCGGAUAAAAGUGGAGGCCGCGG, the self-cleavage was determined as 0.686.
In the case of AACACUGCCAAUGCCGGUCCCUAGCCCGGAUAAAAGUGGAGGGGACGG, the self-cleavage came to 0.678.
The value for AACACUGCCAGUGCCGGUCCCAAGCCCGGAUAAAAGUGGAGUGGGCGG was 0.411; that for ACCACUGCCAAUGCCGGUCUCAAGCCCGGAUAAAAGUGGAGGGGGCGG was 0.0643; that for AACACUGCCAAUGGCGGUCCCAAGCCCGGAUAAAACUGGAGGGGGCGG was 0.065.
Regarding UACACUGCCAAUGCCGGUCCCAAGCCCGGACAAAAGUGGAGGGGGCGG, the self-cleavage stood at 0.0703.
As for AAGACUGCCAAUGCCGGUCCCAAGCACGGAUAAAAGUGGAGGGGGCGG, the self-cleavage amounted to 0.121.
Consider AACACUGCUAAUGCCGGUCCCAAGCCCGGAUAUAAGUGGAGGGGGCGG, for which the self-cleavage worked out at 0.751.
For the variant AACACUGCCAAUGCCGGUGCCAAGCCCGGAUAAAAGUGGAGGGGCCGG, the self-cleavage came out at 0.231.
In the case of AACACUGCCAAUGCCGGUCUUAAGCCCGGAUAAAAGUGGAGGGGGCGG, the self-cleavage came to 0.119.
Turning to AACAAUGCCAAUGCCGGUCCCAAGCCCGGAUAAAAGUGGAAGGGGCGG, the self-cleavage came out at 0.107.
For the variant AACACUGCCAAUGCCGGUCCCAACCCCGGAUAAAAGUGGAGAGGGCGG, the self-cleavage was 0.105.
Next, AACACUGGGAAUGCCGGUCCCAAGCCCGGAUAAAAGUGGAGGGGGCGG: 0.107.
Turning to AACACUGCGAAUGCCGGGCCCAAGCCCGGAUAAAAGUGGAGGGGGCGG, the self-cleavage came to 0.0467.
The value for AACACUGCCAAUGCCGGUCCCAAGCCCGGAUACAUGUGGAGGGGGCGG was 0.936.
AACACUGCCAAUGCCGGUCCCAUGCCCGGAUAAAAGUGGCGGGGGCGG: the self-cleavage was 0.103.
With AACACUGCCAAUGCCAGUCCCAAGCCCGGAUAAAAGUGGACGGGGCGG, the self-cleavage is 0.167.
AACACUGCCAAUGCCGGUCCCACGCCCGGAUAAAAGUGUAGGGGGCGG: the self-cleavage is 0.0921.
In the case of UACACUGCCAAUGCCGGUCCCAAGCCCGGAUAAAAGUCGAGGGGGCGG, the self-cleavage was determined as 0.0576.

Source of the values: the RNAGym collection of RNA variant scans (doi:10.7554/elife.80360).
